What was measured:
[1] = target: rodent (mouse) Aβ1-40 (mouse (rodent)) (UniProt P12023); test: microplate assay on coated human and rodent Aβ1-40 and 1-42
[2] = target: rodent (mouse) Aβ1-42 (mouse (rodent)) (UniProt P12023); test: as above
amyloid β (3-40) (human) = amyloid β (3-40) (human) (UniProt P05067); test: sandwich ELISA, IAlO capture, HRP-14Fl detection, Abeta fragment 3-40
amyloid β (2-40) (human) = amyloid β (2-40) (human) (UniProt P05067); test: sandwich ELISA, IAlO capture, HRP-14Fl detection, Abeta fragment 2-40
human Aβ1-40 (human) = human Aβ1-40 (human) (UniProt P05067); test: sandwich ELISA, IAlO capture, HRP-14Fl detection, human and mouse Abeta 1-40

Row | Molecule | cross-reactivity (against human Aβ) [1] | cross-reactivity (against human Aβ) [2] | cross reactivity (against full-length Abeta 1-40) (amyloid β (3-40) (human)) | cross reactivity (against full-length Abeta 1-40) (amyloid β (2-40) (human)) | cross reactivity (against mouse Abeta 1-40) (human Aβ1-40 (human))
1 | Aβ N-terminal-end specific monoclonal antibody 82E1 (printed 82El) | 10% | 10% |  |  | 
2 | 14F1, mouse/human cross-reactive N terminus end-specific anti-Abeta antibody (antibody, V domains shown) VH: DVHLQASGPDLVRPSQSLSLTCTVTDYSITSDYSWHWIRQFPGNKLEWMGYILFSGSSNFNPSLKSRISITRDTSKNQFFLHLNSVTTEDTATYYCARRAYDGNFSWFAYWGQGTLVTVSA VL: QAVVTQESALTTSPGETVTLTCRSSAGAVTISNYANWVQEKPDHLFTGLIGGTNNRAPGVPARFSGSLIGDKAALTITGAQTEDEAIYFCALWYGNYWVFGGGTKLTVLG |  |  | 0.08% | 0.78% | 50%

— patent WO2007022015A1
